Test results taken from patent publication US20220331363A1 (SHANGHAI GENBASE BIOTECHNOLOGY, published 2022).

B1: murine anti-BCMA antibody C11D5.3 (scFv), reference antibody (scFv, V domains shown)
VH: QIQLVQSGPELKKPGETVKISCKASGYTFTDYSINWVKRAPGKGLKWMGWINTETREPAYAYDFRGRFAFSLETSASTAYLQINNLKYEDTATYFCALDYSYAMDYWGQGTSVTVSS
VL: DIVLTQSPPSLAMSLGKRATISCRASESVTILGSHLIHWYQQKPGQPPTLLIQLASNVQTGVPARFSGSGSRTDFTLTIDPVEEDDVAVYYCLQSRTIPRTFGGGTKLEIK
B2: humanized anti-BCMA antibody C11D5.3-03 (scFv) (scFv, V domains shown)
VH: QIQLVQSGSELKKPGASVKVSCKASGYTFTDYSINWVRQAPGQGLEWMGWINTETREPAYAQGFTGRFVFSLDTSVSTAYLQISSLKAEDTAVYFCALDYSYAMDYWGQGTLVTVSS
VL: EIVLTQSPATLSMSLGERATLSCRASQSVTILGSHLIHWYQQKPGQPPRLLIQLASNVQTGIPARFSGSGSRTDFTLTISSLEEEDFAVYYCLQSRTIPRTFGGGTKVEIK
notes: For the soluble protein it states neither the domain order nor the linker
B3: humanized anti-BCMA antibody C11D5.3-04 (scFv) (scFv, V domains shown)
VH: QIQLVQSGSELKKPGASVKVSCKASGYTFTDYSMNWVRQAPGQGLEWMGWINTETREPTYAQGFTGRFVFSLDTSVSTAYLQISSLKAEDTAVYFCALDYSYAMDYWGQGTLVTVSS
VL: EIVLTQSPATLSMSLGERATLSCRASESVTILGSHLIHWYQQKPGQPPRLLIQLASNRATGIPARFSGSGSRTDFTLTISSLEEEDFAVYYCLQSRTIPRTFGGGTKVEIK
notes: as for B2

Key:
[1] = molecular target: T1, recombinant human BCMA protein (Sino Biological, 10620-H08H) (human, UniProt Q02223 1-54); assay: ELISA, BCMA protein coated at 1 µg/mL, HRP anti-human secondary antibody
T1 construct: Bought protein, coated on the ELISA plate
T1 sequence (looked up): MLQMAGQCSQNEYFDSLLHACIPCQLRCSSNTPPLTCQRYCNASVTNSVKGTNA
Description: The binding activity of the antibodies to human BCMA protein was assessed using an ELISA method, and the antibody potency was compared using dose-dependent binding curves in ELISA.
BCMA protein (Sino Biological, 10620-H08H) was diluted to 1 μg/mL in PBS, 100 μL of the protein solution was added to each well of the ELISA plate and incubated at 4° C. overnight. The plate was washed 3 times in wash buffer (PBS, 0.05% Tween 20), and non-specific sites were blocked by adding 200 μl/w PBS+2% BSA blocking solution. C11D5.3-03, C11D5.3-04 or murine antibody C11D5.3 was added and incubated at 37° C. for 2 h. The plate was washed 3 times in wash buffer, and HRP-conjugated goat anti-human secondary antibody was added and incubated for 1 h at room temperature. The plate was washed 3 times in wash buffer, and the bound secondary antibody was detected by adding TMB (HRP substrate) and incubating the plate in the dark at room temperature for 5 to 10 minutes. The enzymatic reaction was stopped by adding 1M of sulfuric acid solution, and the light absorption at 450 nm was measured.

[2] = molecular target: T2, human BCMA expressed on human multiple myeloma cells (U266, MM.1S, RPMI8226) (human, UniProt Q02223 1-184); assay: flow cytometry (FACS) on MM.1S cells
T2 construct: whole, on cells; Endogenous BCMA on tumor cell lines; also called BCMA-expressing tumor cells; BCMA+ cell line
T2 sequence (looked up): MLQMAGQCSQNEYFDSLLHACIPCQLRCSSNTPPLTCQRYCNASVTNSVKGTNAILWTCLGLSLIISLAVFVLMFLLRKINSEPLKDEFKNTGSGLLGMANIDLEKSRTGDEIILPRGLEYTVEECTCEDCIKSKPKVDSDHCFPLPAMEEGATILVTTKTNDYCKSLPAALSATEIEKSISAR
Description: (§1) Cells (human myeloma cells expressing BCMA or tissue cells not expressing BCMA) were digested, and 500,000 cells were seeded in 50 μL of PBS containing 2% FBS (FACS buffer) in a U-bottom 96-well plate. The test samples were subjected to a 3-fold serial dilution by diluting ⅓ volume (100 μL) in 200 μL of FACS buffer, starting at a concentration of 300 μg/mL (final concentration). 50 μL of the diluted antibody was added to each well of the cell plate and incubated at 4° C. for 1 hour. After washing twice with FACS buffer, 100 μL of secondary antibody (Abcam ab97003, 5 μg/mL, diluted in FACS buffer) was added to each well, and incubated at 4° C. for 0.5 hours. After staining and washing twice with FACS buffer, 200 μL of FACS buffer was added to each well, and reading was performed on the machine (BD C6plus).

[3] = molecular target: T2, human BCMA expressed on human multiple …; assay: flow cytometry (FACS) on U266 cells
Description: as §1

[4] = molecular target: T2, human BCMA expressed on human multiple …; assay: flow cytometry (FACS) on RPMI8226 cells
Description: as §1

[5] = molecular target: human Burkitt's lymphoma cell Daudi; assay: flow cytometry (FACS) on Daudi cells, which Example 3 says do not express BCMA
Description: as §1

Binder | EC50 [1] | EC50 [2] | EC50 [3] | EC50 [4] | EC50 [5]
B1 | 0.011 µg/mL | 1.62 µg/mL | 4.4 µg/mL | 3.81 µg/mL | 
B2 | 0.011 µg/mL | 0.81 µg/mL | 7.57 µg/mL | 2.25 µg/mL | 36.3 µg/mL
B3 | 0.011 µg/mL | 0.47 µg/mL | 1.99 µg/mL | 0.82 µg/mL | 30.7 µg/mL
